Experimental data as given in publication PMC7296103, “Live Cell Imaging Demonstrates Multiple Routes Toward a STAT1 Gain-of-Function Phenotype” (Frontiers in Immunology, 2020).
Numbering of substitutions follows the chain as printed. In names and notes the source's numbering stands. Where two headings read alike, the source gives them in different places.

What was measured:
[1] = molecular target: T1, STAT1-GFP wild type, P42224; test: raster image correlation spectroscopy (RICS), molecular brightness; living U3A cells after IFNγ (1 U/μl, 1 h), 37°C; cytoplasm; brightness as fold of cytoplasmic STAT1 WT; settings: remark: other sources report otherwise
T1 chain: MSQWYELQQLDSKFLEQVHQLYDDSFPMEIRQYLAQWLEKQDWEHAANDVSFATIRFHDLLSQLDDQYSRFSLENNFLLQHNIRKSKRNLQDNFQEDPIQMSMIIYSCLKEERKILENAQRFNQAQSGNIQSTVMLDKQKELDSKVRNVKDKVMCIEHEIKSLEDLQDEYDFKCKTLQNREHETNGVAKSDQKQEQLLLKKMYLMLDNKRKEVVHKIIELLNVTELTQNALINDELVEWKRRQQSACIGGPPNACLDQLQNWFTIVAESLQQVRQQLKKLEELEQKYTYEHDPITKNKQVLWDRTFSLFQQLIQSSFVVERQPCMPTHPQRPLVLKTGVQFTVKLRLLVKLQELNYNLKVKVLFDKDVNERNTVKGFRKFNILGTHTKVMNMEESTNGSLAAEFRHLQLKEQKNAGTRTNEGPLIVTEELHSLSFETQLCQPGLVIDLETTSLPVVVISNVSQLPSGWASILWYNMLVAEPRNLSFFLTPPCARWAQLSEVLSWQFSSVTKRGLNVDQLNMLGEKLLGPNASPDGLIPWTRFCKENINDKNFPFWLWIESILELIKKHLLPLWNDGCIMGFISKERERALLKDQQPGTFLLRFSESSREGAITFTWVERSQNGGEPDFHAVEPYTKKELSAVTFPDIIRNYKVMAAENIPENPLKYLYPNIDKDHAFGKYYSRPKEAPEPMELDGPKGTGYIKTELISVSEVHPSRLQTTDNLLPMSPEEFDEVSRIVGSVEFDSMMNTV

[2] = molecular target: T1, STAT1-GFP wild type, P42224; test: raster image correlation spectroscopy (RICS), molecular brightness; living U3A cells, unstimulated, 37°C; cytoplasm and nucleus; brightness of STAT1-GFP compared with monomeric GFP; settings: remark: other sources report otherwise
[3] = molecular target: T1, STAT1-GFP wild type, P42224; test: raster image correlation spectroscopy (RICS), molecular brightness; living U3A cells after IFNγ (1 U/μl, 1 h), 37°C; nucleus; brightness as fold of cytoplasmic STAT1 WT; dimers to tetramers; settings: remark: other sources report otherwise
[4] = molecular target: the molecule itself; test: as above
[5] = molecular target: the molecule itself; test: raster image correlation spectroscopy (RICS), molecular brightness; living U3A cells after IFNγ (1 U/μl, 1 h), 37°C; cytoplasm; brightness as fold of cytoplasmic STAT1 WT
[6] = molecular target: the molecule itself; test: raster image correlation spectroscopy (RICS), molecular brightness; living U3A cells after IFNγ (1 U/μl, 1 h), 37°C; nucleus; brightness as fold of cytoplasmic STAT1 WT; dimers to tetramers; remark: listed apart in the source

B1: STAT1-GFP wild type, P42224 1-750 (natural protein)
chain: T1 chain
- relative brightness (fold of cytoplasmic STAT1 WT) [1]: 1 A.U.
- stoichiometry N [2]: 2
- relative brightness (fold of cytoplasmic STAT1 WT) [3]: 1.32 A.U.
- stoichiometry N [3]: 4

B2: STAT1-GFP E411A (natural protein, UniProt P42224 1-750, looked up)
chain: T1 chain with E411A
notes: Artificial mutation, not reported in patients; also called STAT1E411A-eGFP; source: measured in living cells; not shown: eGFP, C-terminal, kept
- stoichiometry N [4]: 2

B3: STAT1-GFP Y701A (natural protein, UniProt P42224 1-750, looked up)
chain: T1 chain with Y701A
notes: Non-clinical control; also called STAT1Y701A-eGFP; source: measured in living cells; not shown: eGFP, C-terminal, kept
- stoichiometry N [4]: 2

B4: STAT1-GFP R274W (natural protein, UniProt P42224 1-750, looked up)
chain: T1 chain with R274W
notes: STAT1 with the patient gain-of-function mutation R274W (coiled-coil domain); Mutation reported in patients; also called STAT1R274W-eGFP; source: measured in living cells; not shown: eGFP, C-terminal, kept
- increase of nuclear brightness compared to cytoplasmic STAT1 WT [4]: 17%
- stoichiometry N [4]: 4

B5: STAT1-GFP R321S (natural protein, UniProt P42224 1-750, looked up)
chain: T1 chain with R321S
notes: Mutation reported in patients; also called STAT1R321S-eGFP; source: measured in living cells; not shown: eGFP, C-terminal, kept
- relative brightness (fold of cytoplasmic STAT1 WT) [5]: 0.69 A.U.
- increase of nuclear brightness compared to cytoplasmic STAT1 WT [4]: 11%
- stoichiometry N [4]: 4

B6: STAT1-GFP N574I (natural protein, UniProt P42224 1-750, looked up)
chain: T1 chain with N574I
notes: STAT1 with the patient gain-of-function mutation N574I (linker domain); Mutation reported in patients; also called STAT1N574I-eGFP; N571I (as printed in some places); source: measured in living cells; not shown: eGFP, C-terminal, kept
- relative brightness (fold of cytoplasmic STAT1 WT) [5]: 0.74 A.U.
- increase of nuclear brightness compared to cytoplasmic STAT1 WT [4]: 7%
- stoichiometry N [4]: 4

B7: STAT1-GFP T419R (natural protein, UniProt P42224 1-750, looked up)
chain: T1 chain with T419R
notes: Mutation reported in patients; also called STAT1T419R-eGFP; source: measured in living cells; not shown: eGFP, C-terminal, kept
- stoichiometry N [6]: 2
